Data: US20180155451A1 (published 2018)

T1: FcγRIIb extracellular domain with C-terminal His tag (human, UniProt P31994 43-217)
T1 construct: extracellular domain; also called FcgRIIb; 2b; not shown: His tag at the C terminus
T1 sequence (looked up): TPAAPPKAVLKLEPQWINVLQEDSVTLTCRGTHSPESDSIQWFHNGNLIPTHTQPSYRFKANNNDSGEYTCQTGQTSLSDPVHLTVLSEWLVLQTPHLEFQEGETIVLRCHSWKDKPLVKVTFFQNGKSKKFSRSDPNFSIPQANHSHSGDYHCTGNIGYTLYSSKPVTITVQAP


Columns and labels:
[1] = target: T2, FcγRIIIa extracellular domain with C-terminal His tag (human, UniProt P08637 17-208); test: ratio of He/Con_3a to He/Con_2b (FcγRIIIa over FcγRIIb), SPR relative binding
T2 construct: extracellular domain; also called FcgRIIIa; 3a; not shown: His tag at the C terminus
T2 sequence (P08637 17-208): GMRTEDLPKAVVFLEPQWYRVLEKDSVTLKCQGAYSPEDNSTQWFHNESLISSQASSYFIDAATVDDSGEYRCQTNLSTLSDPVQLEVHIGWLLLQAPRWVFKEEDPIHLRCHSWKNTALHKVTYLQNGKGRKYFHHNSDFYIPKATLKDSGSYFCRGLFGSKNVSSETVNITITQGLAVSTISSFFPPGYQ
Protocol: The heterodimerized antibodies He Abs in which one of the H chains was introduced with an alteration were assayed for their binding activities to each activating FcγR and inhibitory FcγR according to the method described in Example 4. […] The activating FcγRs in FIGS. 26, 27, 28, and 29 are FcγRIa, FcγRIIa (R), FcγRIIa (H), and FcγRIIIa, respectively.
Analysis of interaction between objective antibody and the FcγR was carried out using Biacore T100 (GE Healthcare). HBS-EP+ (GE Healthcare) was used as the running buffer, and the measurement temperature was set to 25° C. Chips produced by immobilizing the antigen peptide by the amine coupling method to a Series S Sencor Chip CM5 (GE Healthcare), or alternatively, chips produced by allowing preliminarily biotinylated antigen peptides to interact with and immobilize onto a Series S Sensor Chip SA (certified) (GE Healthcare) were used. Antibodies of interest were captured onto an antigen peptide-immobilized chip, and allowed to interact to each FcγR diluted with running buffer. To regenerate and repeatedly use the chip, the antibodies captured on the chip were washed off by reacting 10 mM glycine-HCl, pH 1.5.

[2] = target: T1, FcγRIIb extracellular domain with …; test: SPR (Biacore), antibody captured via antigen peptide, FcγR as analyte; binding relative to GpH7-A5/GpH7-B3/GpL16-k0 = 100
[3] = target: T2, FcγRIIIa extracellular domain with …; test: as above

Binder | IIIa/IIb (He_3a/2b) [1] | He/Con_2b [2] | He/Con_3a [3]
GpH7-A5/GpH7-B3 variant D270_01G/GpL16-k0 (antibody, human IgG1, kappa, He Ab: the mutation stands only in the GpH7-B3-derived H chain; also called He Ab D270G) heavy 1: not shown heavy 2: not shown light: DIVMTQSPLSLPVTPGEPASISCQASESLVHSNRNTYLHWYLQKPGQSPQLLIYKVSNRFSGVPDRFSGSGSGTDFTLKISRVEAEDVGVYYCSQNTHVPPTFGQGTKVEIERTVAAPSVFIFPPSDEQLKSGTASVVCLLNNFYPREAKVQWKVDNALQSGNSQESVTEQDSKDSTYSLSSTLTLSKADYEKHKVYACEVTHQGLSSPVTKSFNRGEC | 1.26 | 30.5 relative (control = 100) | 38.5 relative (control = 100)
GpH7-A5/GpH7-B3 variant D270_03V/GpL16-k0 (antibody, human IgG1, kappa, He Ab: the mutation stands only in the GpH7-B3-derived H chain; also called He Ab D270V) heavy 1: not shown heavy 2: not shown light: DIVMTQSPLSLPVTPGEPASISCQASESLVHSNRNTYLHWYLQKPGQSPQLLIYKVSNRFSGVPDRFSGSGSGTDFTLKISRVEAEDVGVYYCSQNTHVPPTFGQGTKVEIERTVAAPSVFIFPPSDEQLKSGTASVVCLLNNFYPREAKVQWKVDNALQSGNSQESVTEQDSKDSTYSLSSTLTLSKADYEKHKVYACEVTHQGLSSPVTKSFNRGEC | 1.52 | 39.5 relative (control = 100) | 60.3 relative (control = 100)
GpH7-A5/GpH7-B3 variant D270_08L/GpL16-k0 (antibody, human IgG1, kappa, He Ab: the mutation stands only in the GpH7-B3-derived H chain; also called He Ab D270L) heavy 1: not shown heavy 2: not shown light: DIVMTQSPLSLPVTPGEPASISCQASESLVHSNRNTYLHWYLQKPGQSPQLLIYKVSNRFSGVPDRFSGSGSGTDFTLKISRVEAEDVGVYYCSQNTHVPPTFGQGTKVEIERTVAAPSVFIFPPSDEQLKSGTASVVCLLNNFYPREAKVQWKVDNALQSGNSQESVTEQDSKDSTYSLSSTLTLSKADYEKHKVYACEVTHQGLSSPVTKSFNRGEC | 1.34 | 53.6 relative (control = 100) | 71.8 relative (control = 100)
GpH7-A5/GpH7-B3 variant D270_06M/GpL16-k0 (antibody, human IgG1, kappa, He Ab: the mutation stands only in the GpH7-B3-derived H chain; also called He Ab D270M) heavy 1: not shown heavy 2: not shown light: DIVMTQSPLSLPVTPGEPASISCQASESLVHSNRNTYLHWYLQKPGQSPQLLIYKVSNRFSGVPDRFSGSGSGTDFTLKISRVEAEDVGVYYCSQNTHVPPTFGQGTKVEIERTVAAPSVFIFPPSDEQLKSGTASVVCLLNNFYPREAKVQWKVDNALQSGNSQESVTEQDSKDSTYSLSSTLTLSKADYEKHKVYACEVTHQGLSSPVTKSFNRGEC | 1.38 | 48.2 relative (control = 100) | 66.3 relative (control = 100)

Now from value to binder:

IIIa/IIb (He_3a/2b) [1] | He/Con_2b [2] | He/Con_3a [3] | Binder
1.47 | 44.3 relative (control = 100) | 65 relative (control = 100) | GpH7-A5/GpH7-B3 variant E269_19Q/GpL16-k0 (antibody, human IgG1, kappa, He Ab: the mutation stands only in the GpH7-B3-derived H chain; also called He Ab E269Q) heavy 1: not shown heavy 2: not shown light: DIVMTQSPLSLPVTPGEPASISCQASESLVHSNRNTYLHWYLQKPGQSPQLLIYKVSNRFSGVPDRFSGSGSGTDFTLKISRVEAEDVGVYYCSQNTHVPPTFGQGTKVEIERTVAAPSVFIFPPSDEQLKSGTASVVCLLNNFYPREAKVQWKVDNALQSGNSQESVTEQDSKDSTYSLSSTLTLSKADYEKHKVYACEVTHQGLSSPVTKSFNRGEC
1.22 | 44.9 relative (control = 100) | 54.5 relative (control = 100) | GpH7-A5/GpH7-B3 variant D270_15Y/GpL16-k0 (antibody, human IgG1, kappa, He Ab: the mutation stands only in the GpH7-B3-derived H chain; also called He Ab D270Y) heavy 1: not shown heavy 2: not shown light: DIVMTQSPLSLPVTPGEPASISCQASESLVHSNRNTYLHWYLQKPGQSPQLLIYKVSNRFSGVPDRFSGSGSGTDFTLKISRVEAEDVGVYYCSQNTHVPPTFGQGTKVEIERTVAAPSVFIFPPSDEQLKSGTASVVCLLNNFYPREAKVQWKVDNALQSGNSQESVTEQDSKDSTYSLSSTLTLSKADYEKHKVYACEVTHQGLSSPVTKSFNRGEC
1.32 | 79.7 relative (control = 100) | 106 relative (control = 100) | GpH7-A5/GpH7-B3 variant Q295_02A/GpL16-k0 (antibody, human IgG1, kappa, He Ab: the mutation stands only in the GpH7-B3-derived H chain; also called He Ab Q295A) heavy 1: not shown heavy 2: not shown light: DIVMTQSPLSLPVTPGEPASISCQASESLVHSNRNTYLHWYLQKPGQSPQLLIYKVSNRFSGVPDRFSGSGSGTDFTLKISRVEAEDVGVYYCSQNTHVPPTFGQGTKVEIERTVAAPSVFIFPPSDEQLKSGTASVVCLLNNFYPREAKVQWKVDNALQSGNSQESVTEQDSKDSTYSLSSTLTLSKADYEKHKVYACEVTHQGLSSPVTKSFNRGEC
1.28 | 58.1 relative (control = 100) | 74.1 relative (control = 100) | GpH7-A5/GpH7-B3 variant P271_20W/GpL16-k0 (antibody, human IgG1, kappa, He Ab: the mutation stands only in the GpH7-B3-derived H chain; also called He Ab P271W) heavy 1: not shown heavy 2: not shown light: DIVMTQSPLSLPVTPGEPASISCQASESLVHSNRNTYLHWYLQKPGQSPQLLIYKVSNRFSGVPDRFSGSGSGTDFTLKISRVEAEDVGVYYCSQNTHVPPTFGQGTKVEIERTVAAPSVFIFPPSDEQLKSGTASVVCLLNNFYPREAKVQWKVDNALQSGNSQESVTEQDSKDSTYSLSSTLTLSKADYEKHKVYACEVTHQGLSSPVTKSFNRGEC
